Test results: the RNAGym collection of RNA variant scans (doi:10.1073/pnas.2313332121)

B1: TPR t1 (parent)
chain: GACCAAUCUGCCCUCAGAGCUCGAGAACAUCUUCGGAUGCAGAGGAGGCAGGCUUCGGUGGCGCGAUAGCGCCAACGUCCUCAACCUCCAAUGCAUCCCACCACAUGAUGAUGCCUGAAGAGCCUUGGUUUUUUG

Variants of: B1
Test: polymerase ribozyme fitness, log enrichment relative to wild type (log ratio); higher = more active; in vitro selection for triplet polymerase activity
Outline: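 A heterodimeric triplet polymerase ribozyme had each of its subunits mutagenized by PCR into a library, which was transcribed. One round of in vitro selection, done in triplicate, annealed each library with a biotinylated primer, its partner subunit and triplets, then incubated it frozen at −7 °C before gel excision of extended constructs, streptavidin-bead capture and RT-PCR. Fitness is the logarithm of genotype enrichment relative to wild-type enrichment, based on Illumina sequencing of inputs and outputs and inverse-variance-weighted replicate averages. A base-2 logarithm is used, and genotypes were kept only with ≥10 input reads and ≥1 read per output.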

Going from U14G A95G to A46U G127C, the “polymerase ribozyme fitness (log ratio)” value falls from -2.23 to -2.68.

Going from C12G C22G to G10A C73G, the “polymerase ribozyme fitness (log ratio)” value rises from -3.07 to -0.355.

Going from G42U G71A to C49A A50G G52U A118U, the “polymerase ribozyme fitness (log ratio)” value rises from -2.43 to 0.379.

Compared with A37G C49G C64G A111U U126G, G71A C89G is higher in “polymerase ribozyme fitness (log ratio)” value: -6.45 for the first, -2.03 for the second.

First: A29U G61C
Second: A50U C85A
The “polymerase ribozyme fitness (log ratio)” value of the first is lower: -2.79 for the first, -2.11 for the second.

First: A2C U33A C97A U106A G120C U126A
Second: G52C C85U G117C
The “polymerase ribozyme fitness (log ratio)” value of the first is lower: -6.8 for the first, -5.83 for the second.

Compared with G48A C72G, U9A A50C A91G U106C is lower in “polymerase ribozyme fitness (log ratio)” value: -0.135 for the first, -1.11 for the second.

First: G36U G61A
Second: A46G G47A G52U
The “polymerase ribozyme fitness (log ratio)” value of the first is higher: -1.47 for the first, -2.7 for the second.

Compared with G63U G113A G128U, G110C G128U is lower in “polymerase ribozyme fitness (log ratio)” value: -4.06 for the first, -4.78 for the second.

Compared with C15G A37C C49U C53U, A5C C72U C82G U87A C123G is higher in “polymerase ribozyme fitness (log ratio)” value: -4.47 for the first, -3.15 for the second.

Compared with U55G G61U C123A, C13G G35U G61U C102U is lower in “polymerase ribozyme fitness (log ratio)” value: 1.22 for the first, -6.42 for the second.

First: U9A C73U G117A
Second: U9G C40G G110U C123G
The “polymerase ribozyme fitness (log ratio)” value of the first is higher: 0.559 for the first, -4.98 for the second.

Compared with C20A C73G, G23A A26G is lower in “polymerase ribozyme fitness (log ratio)” value: -3.25 for the first, -4.52 for the second.

First: A16C C115G
Second: C8A G44U G51U U59C G77U U112C U130A
The “polymerase ribozyme fitness (log ratio)” value of the first is higher: -3.37 for the first, -4.84 for the second.

Compared with C8A A111C, G57U A75G A83C G117A is lower in “polymerase ribozyme fitness (log ratio)” value: 0.0486 for the first, -2 for the second.

Compared with C13U C99U U133G, A18U A29U U54G U78C C89G C114G is lower in “polymerase ribozyme fitness (log ratio)” value: -2.46 for the first, -3.24 for the second.

Going from A83U C89A U96A to C53G G117A U132A, the “polymerase ribozyme fitness (log ratio)” value rises from -2.34 to -1.03.

First: U106C A118U
Second: C70U U109G
The “polymerase ribozyme fitness (log ratio)” value of the first is higher: -0.171 for the first, -4.21 for the second.

Compared with A6C C62G, A26G C28A G113A is lower in “polymerase ribozyme fitness (log ratio)” value: -2.28 for the first, -4.3 for the second.

Going from U54G G107U to U30G G48A C49U C62U C85A A121G, the “polymerase ribozyme fitness (log ratio)” value falls from -5.37 to -6.22.

Compared with C8A A18C G60U, C13A A43C G44A G77A A83U is lower in “polymerase ribozyme fitness (log ratio)” value: -1.62 for the first, -4.05 for the second.

First: C56U C123A U126A
Second: C34A C73G G120A C124G U133A
The “polymerase ribozyme fitness (log ratio)” value of the first is higher: 0.177 for the first, -1.12 for the second.

First: C12A U33C A103C G113U C114G G127U
Second: G93U A121U
The “polymerase ribozyme fitness (log ratio)” value of the first is lower: -6.43 for the first, 1.23 for the second.

Going from C40U C80G to A91G C104A, the “polymerase ribozyme fitness (log ratio)” value rises from -5.42 to -2.34.

First: C22G U78A U87A C88A C102A
Second: C15U A24G A41G C115U
The “polymerase ribozyme fitness (log ratio)” value of the first is lower: -5.54 for the first, -2.93 for the second.

Going from C3U G19A C70U A111G G120U to A43U C73A, the “polymerase ribozyme fitness (log ratio)” value rises from -3.71 to -1.5.

Going from G36U G47C G117U to C56U U78G G93U G113A, the “polymerase ribozyme fitness (log ratio)” value rises from -6.43 to -2.45.

Going from A6G G71C A118U to C79U A90G G107U, the “polymerase ribozyme fitness (log ratio)” value falls from -0.254 to -4.88.

Compared with A27U C76U, A29G C40A A41U U92G is lower in “polymerase ribozyme fitness (log ratio)” value: -3.39 for the first, -4.59 for the second.

Compared with G39U C85A A90G A119U C123G U125G, C4U C53U C82A U129C is lower in “polymerase ribozyme fitness (log ratio)” value: -1.21 for the first, -2.91 for the second.

First: A2U C12U G110A U129C
Second: C82G C88G
The “polymerase ribozyme fitness (log ratio)” value of the first is lower: -1.58 for the first, -1.26 for the second.

Going from C13U G19A G77C U81C to G10U A50U, the “polymerase ribozyme fitness (log ratio)” value rises from -3.54 to -1.65.

Compared with C88A U96C, G47C G48A C72U A91C C97U is lower in “polymerase ribozyme fitness (log ratio)” value: -0.897 for the first, -3.42 for the second.

First: C104G G113C
Second: C53G C64U G127U
The “polymerase ribozyme fitness (log ratio)” value of the first is lower: -6.7 for the first, -1.02 for the second.

Going from G107A A108G G120A C124A to G61A C62U C73A, the “polymerase ribozyme fitness (log ratio)” value rises from -3.55 to -2.37.

Going from A27C G47U C73U G77U C86G C123A U126A to C62A U81A G93A, the “polymerase ribozyme fitness (log ratio)” value rises from -4.61 to -2.69.

Going from C11U C40G G61C A119U to A5G G47U C62A G71C, the “polymerase ribozyme fitness (log ratio)” value rises from -2.64 to -1.95.

First: A41G G61A C101U U133G
Second: G10C C56U G117C
The “polymerase ribozyme fitness (log ratio)” value of the first is higher: -1.01 for the first, -4.57 for the second.

First: C13U G60A C82A U131G
Second: U21A U38A G42A G44A U55G
The “polymerase ribozyme fitness (log ratio)” value of the first is higher: -0.416 for the first, -2.99 for the second.

First: G122U U130G
Second: U54C U78G G117U
The “polymerase ribozyme fitness (log ratio)” value of the first is higher: -0.749 for the first, -3.85 for the second.

Compared with C11U G69U A121G, U55A U87A G122A is lower in “polymerase ribozyme fitness (log ratio)” value: 2.01 for the first, -0.825 for the second.

Going from C8G U14A G58C to C12U U14A C88G, the “polymerase ribozyme fitness (log ratio)” value falls from -0.0186 to -1.12.
